Data published in paper PMC5381515 (Structure (London, England : 1993), 2017).

B1: full-length human βB2-crystallin (natural protein, UniProt P43320 1-205, looked up)
chain: MASDHQTQAGKPQSLNPKIIIFEQENFQGHSHELNGPCPNLKETGVEKAGSVLVQAGPWVGYEQANCKGEQFVFEKGEYPRWDSWTSSRRTDSLSSLRPIKVDSQEHKIILYENPNFTGKKMEIIDDDVPSFHAHGYQEKVSSVRVQSGTWVGYQYPGYRGLQYLLEKGDYKDSSDFGAPHPQVQSVRRIRDMQWHQRGAFHPSN

Assays:
[1] = biological target: truncated human βB2-crystallin (14–194) (human); assay: SEC-MALS
SEC-MALS = biological target: the molecule itself; assay: SEC-MALS

Molecule | stoichiometry N [1] | stoichiometry N (SEC-MALS)
truncated human βB2-crystallin (14–194) (domain or fragment) | 2 | –
B1 | – | 2
